Experimental data: paper PMC3264566, “Structure-Function Studies of DNA Binding Domain of Response Regulator KdpE Reveals Equal Affinity Interactions at DNA Half-Sites”

Tests used:
Assay in all cases: EMSA; up to 1:8 DNA:protein; AUC: 50 mM HEPES pH 7.4, 150 mM KCl, 1 mM EDTA, 20 C, DNA 0.5 uM in SV; EMSA: 10 mM Tris pH 8.0, 50 mM NaCl, 5% glycerol, 0.1% Triton X-100, 10 mM DTT, 1 mM EDT
Details in all cases: protein: recombinant; chain copies: 2; blunt
KdpE DBD R193A = target: T1, KdpE DBD R193A (Escherichia coli str. K-12 substr. …, UniProt P21866 124-225, R193A)
T1 sequence: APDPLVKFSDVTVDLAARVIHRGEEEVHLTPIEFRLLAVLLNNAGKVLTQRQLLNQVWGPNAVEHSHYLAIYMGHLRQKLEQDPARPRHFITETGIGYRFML

KdpE DBD T215A = target: T2, KdpE DBD T215A (Escherichia coli str. K-12 substr. …, UniProt P21866 124-225, T215A)
T2 sequence: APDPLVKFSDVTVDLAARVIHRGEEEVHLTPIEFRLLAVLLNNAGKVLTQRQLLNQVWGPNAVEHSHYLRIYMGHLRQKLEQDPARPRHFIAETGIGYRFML

KdpE DBD R200A = target: T3, KdpE DBD R200A (Escherichia coli str. K-12 substr. …, UniProt P21866 124-225, R200A)
T3 sequence: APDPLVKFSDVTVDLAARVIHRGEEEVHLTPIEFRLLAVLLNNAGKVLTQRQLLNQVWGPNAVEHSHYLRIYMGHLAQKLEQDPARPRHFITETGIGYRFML

Measured: binding result

B1: kdpFABCBS 30 bp (dsDNA)
DNA 1: CATTTTTATACTTTTTTTACACCCCGCCCG
DNA 2: CGGGCGGGGTGTAAAAAAAGTATAAAAATG
no binding: all assays above
